Measured values: patent publication US20240124597A1 (Bristol-Myers Squibb, published 2024)
Residue numbers refer to the chain shown, from its start. Numbers in names are those of the source. Each block holds one binder with its values, some of them ahead of it.

Molecular target: T1, human-CD40-monomer protein (human, UniProt P25942 21-193, limits assumed)
T1 construct: Soluble monomer generated in house, used as SPR analyte; also called hCD40; hCD40-monomer
Assay: SPR, Ab captured on protein A, hCD40 monomer 500 and 50 nM, 1:1 fit; supernatant
Description: Titer analysis was performed using Biolayer Interferometry (BLI) on an Octet RED instrument (Fortebio) by capturing antibodies from supernatant using protein A sensor tips and measuring capture response with respect to a standard curve obtained using a control antibody sample. SPR data were obtained by capturing antibodies on a protein A surface and testing the binding of 500 nM and 50 nM injections of human-CD40 analyte, using a BIAcore™ T200 instrument (GE Healthcare). The kinetic data for the two concentrations of hCD40-monomer were fit to a 1:1 Langmuir model, to yield estimates of the kinetic and affinity values for these interactions, and for comparison of the different molecules.

T1 sequence (P25942 21-193 limits assumed): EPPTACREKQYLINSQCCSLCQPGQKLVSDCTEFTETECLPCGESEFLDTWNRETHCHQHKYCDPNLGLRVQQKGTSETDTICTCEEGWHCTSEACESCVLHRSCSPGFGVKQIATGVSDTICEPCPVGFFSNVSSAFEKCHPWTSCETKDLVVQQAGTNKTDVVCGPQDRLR

B1: Y12XX-hz14 (antibody, human IgG1, kappa, V domains shown)
VH: QVQLVQSGAEVKKPGSSVKVSCKASGYAFTSYWMHWVRQAPGQGLEWMGQINPTTGRSQYNEKFKTRVTITADKSTSTAYMELSSLRSEDTAVYYCARWGLQPFAYWGQGTLVTVSS
VL: DIQMTQSPSSLSASVGDRVTITCKASQDVSTAVAWYQQKPGKAPKLLIYSASYRYTGVPSRFSGSGSGTDFTFTISSLQPEDIATYYCQQHYSTPWTFGGGTKVEIKR
notes: Humanized, IgG1-P238K; supernatant sample
Kd: 5 nM
koff: 0.00083 s⁻¹
kon: 170000 M⁻¹ s⁻¹

B2: Y12XX-hz18 (antibody, human IgG1, kappa, V domains shown)
VH: QVQLVQSGAEVKKPGSSVKVSCKASGYAFTSYWMHWVRQAPGQGLEWMGYINPTTGYSAYNQKFKDKATLTADKSTSTAYMELSSLRSEDTAVYYCARWDPRPFAYWGQGTLVTVSS
VL: B1 VL with S10F, F73L, I83F
notes: as for B1
Kd: 7.1 nM
koff: 0.0024 s⁻¹
kon: 350000 M⁻¹ s⁻¹

B5: Y12XX-hz5 (antibody, human IgG1, kappa, V domains shown)
VH: B2 VH with A40R
VL: B1 VL
notes: as for B1
Kd: 7.2 nM
koff: 0.0025 s⁻¹
kon: 350000 M⁻¹ s⁻¹

B7: Y12XX-hz9 (antibody, human IgG1, kappa, V domains shown)
VH: B1 VH with T54S, T55N
VL: B1 VL
notes: as for B1
Kd: 4.6 nM
koff: 0.00089 s⁻¹
kon: 200000 M⁻¹ s⁻¹

B8: Y12XX-hz17 (antibody, human IgG1, kappa, V domains shown)
VH: B1 VH with A40R, M48I, Q50F, R57Y, Q59E, E62Q, T66D, S84N, Q102P
VL: B1 VL with S10F, F73L, I83F
notes: as for B1
Kd: 210 nM
koff: 0.077 s⁻¹
kon: 370000 M⁻¹ s⁻¹

B9: Y12XX-hz3 (antibody, human IgG1, kappa, V domains shown)
VH: B1 VH with A40R, M48I, Q50F, R57Y, Q59E, E62Q, T66D, S84N, Q102P
VL: B1 VL
notes: as for B1
Kd: 4.5 nM
koff: 6.7e-05 s⁻¹
kon: 15000 M⁻¹ s⁻¹

B10: Y12XX-hz2 (antibody, human IgG1, kappa, V domains shown)
VH: B1 VH with A40R, Q50F, R57Y, Q59E, E62Q, T66D, Q102P
VL: B1 VL
notes: as for B1
Kd: 4.1 nM
koff: 7.1e-05 s⁻¹
kon: 17000 M⁻¹ s⁻¹

B11: Y12XX-hz4 (antibody, human IgG1, kappa, V domains shown)
VH: B2 VH
VL: B1 VL
notes: as for B1
Kd: 4.7 nM
koff: 0.0022 s⁻¹
kon: 460000 M⁻¹ s⁻¹

B13: Y12XX-hz8 (antibody, human IgG1, kappa, V domains shown)
VH: B2 VH with P101A
VL: B1 VL
notes: as for B1
Kd: 210 nM
koff: 0.15 s⁻¹
kon: 720000 M⁻¹ s⁻¹

B18: Y12XX-hz11 (antibody, human IgG1, kappa, V domains shown)
VH: B1 VH with A40R, M48I, T54S, T55N
VL: B1 VL
notes: as for B1
Kd: 5 nM
koff: 0.00088 s⁻¹
kon: 180000 M⁻¹ s⁻¹

B22: Y12XX-hz12 (antibody, human IgG1, kappa, V domains shown)
VH: B1 VH with T54S, T55Q
VL: B1 VL
notes: as for B1
Kd: 8.3 nM
koff: 0.0014 s⁻¹
kon: 170000 M⁻¹ s⁻¹

B24: Y12XX-hz10 (antibody, human IgG1, kappa, V domains shown)
VH: B1 VH with A40R, T54S, T55N
VL: B1 VL
notes: as for B1
Kd: 3.6 nM
koff: 0.00073 s⁻¹
kon: 200000 M⁻¹ s⁻¹

B26: Y12XX-hz1 (antibody, human IgG1, kappa, V domains shown)
VH: B1 VH with Q50F, R57Y, Q59E, E62Q, T66D, Q102P
VL: B1 VL
notes: as for B1
Kd: 1.1 nM
koff: 1.6e-05 s⁻¹
kon: 15000 M⁻¹ s⁻¹

B28: Y12XX-hz15 (antibody, human IgG1, kappa, V domains shown)
VH: B1 VH with Q50F, R57Y, Q59E, E62Q, T66D, Q102P
VL: B1 VL with S10F, F73L, I83F
notes: as for B1
Kd: 8 nM
koff: 0.00013 s⁻¹
kon: 16000 M⁻¹ s⁻¹

B30: Y12XX-hz13 (antibody, human IgG1, kappa, V domains shown)
VH: B1 VH with T54S, T55N, G56A
VL: B1 VL
notes: as for B1
Kd: 3.9 nM
koff: 0.00083 s⁻¹
kon: 210000 M⁻¹ s⁻¹

B31: Y1258 (antibody, human IgG1, kappa)
heavy: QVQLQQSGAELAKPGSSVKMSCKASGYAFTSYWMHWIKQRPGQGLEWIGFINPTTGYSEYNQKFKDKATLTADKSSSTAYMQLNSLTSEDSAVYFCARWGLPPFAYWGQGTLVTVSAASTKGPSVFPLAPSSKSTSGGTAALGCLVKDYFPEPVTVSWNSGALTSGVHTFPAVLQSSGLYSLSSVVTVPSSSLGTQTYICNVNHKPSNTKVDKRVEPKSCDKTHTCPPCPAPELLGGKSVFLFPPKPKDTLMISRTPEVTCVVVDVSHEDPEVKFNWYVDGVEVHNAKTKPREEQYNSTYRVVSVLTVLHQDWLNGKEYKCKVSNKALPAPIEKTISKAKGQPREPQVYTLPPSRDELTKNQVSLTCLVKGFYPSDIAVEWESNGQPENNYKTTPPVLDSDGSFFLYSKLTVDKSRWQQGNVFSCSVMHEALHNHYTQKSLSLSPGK
light: DIVMTQSHKFMSTSVGDRVSITCKASQDVSTAVAWYQQKPGQSPKLLIYSASYRYTGVPDRFTGSGSGTDFTFTISSVQAEDLAVYYCQQHYSTPWTFGGGTKLEIKRTVAAPSVFIFPPSDEQLKSGTASVVCLLNNFYPREAKVQWKVDNALQSGNSQESVTEQDSKDSTYSLSSTLTLSKADYEKHKVYACEVTHQGLSSPVTKSFNRGEC
notes: Chimeric, mouse variable and human constant regions; supernatant sample; also called chimeric Y1258
Kd: 0.067 nM
koff: 3.8e-06 s⁻¹
kon: 56000 M⁻¹ s⁻¹

Next, values leading:

Kd: 3.6 nM
koff: 0.00088 s⁻¹
kon: 250000 M⁻¹ s⁻¹
B3: Y12XX-hz38 (antibody, human IgG1, kappa, V domains shown)
VH: B1 VH with A40R, T54S, T55N
VL: EIVMTQSPATLSVSPGERATLSCKASQDVSTAVAWYQQKPGQAPRLLIYSASYRYTGIPARFSGSGSGTEFTLTISSLQSEDFAVYYCQQHYSTPWTFGGGTKVEIKR
notes: as for B1

Kd: 3.3 nM
koff: 0.00084 s⁻¹
kon: 260000 M⁻¹ s⁻¹
B4: Y12XX-hz37 (antibody, human IgG1, kappa, V domains shown)
VH: B1 VH with T54S, T55N
VL: B3 VL
notes: as for B1

Kd: 10 nM
koff: 0.003 s⁻¹
kon: 290000 M⁻¹ s⁻¹
B6: Y12XX-hz32 (antibody, human IgG1, kappa, V domains shown)
VH: B2 VH
VL: B3 VL
notes: as for B1

Kd: 4.4 nM
koff: 0.00082 s⁻¹
kon: 190000 M⁻¹ s⁻¹
B12: Y12XX-hz24 (antibody, human IgG1, kappa, V domains shown)
VH: B1 VH with A40R, T54S, T55N
VL: B1 VL with S10F, F73L, I83F
notes: as for B1

Kd: 3.2 nM
koff: 0.00064 s⁻¹
kon: 200000 M⁻¹ s⁻¹
B14: Y12XX-hz23 (antibody, human IgG1, kappa, V domains shown)
VH: B1 VH with T54S, T55N
VL: B1 VL with S10F, F73L, I83F
notes: as for B1

Kd: 250 nM
koff: 0.1 s⁻¹
kon: 390000 M⁻¹ s⁻¹
B15: Y12XX-hz36 (antibody, human IgG1, kappa, V domains shown)
VH: B2 VH with P101A
VL: B3 VL
notes: as for B1

Kd: 0.069 nM
koff: 2.6e-06 s⁻¹
kon: 37000 M⁻¹ s⁻¹
B16: Y12XX-hz29 (antibody, human IgG1, kappa, V domains shown)
VH: B1 VH with Q50F, R57Y, Q59E, E62Q, T66D, Q102P
VL: B3 VL
notes: as for B1

Kd: 7.5 nM
koff: 0.0012 s⁻¹
kon: 160000 M⁻¹ s⁻¹
B17: Y12XX-hz26 (antibody, human IgG1, kappa, V domains shown)
VH: B1 VH with T54S, T55Q
VL: B1 VL with S10F, F73L, I83F
notes: as for B1

Kd: 11 nM
koff: 0.0033 s⁻¹
kon: 290000 M⁻¹ s⁻¹
B19: Y12XX-hz33 (antibody, human IgG1, kappa, V domains shown)
VH: B2 VH with A40R
VL: B3 VL
notes: as for B1

Kd: 4.7 nM
koff: 0.00088 s⁻¹
kon: 190000 M⁻¹ s⁻¹
B20: Y12XX-hz27 (antibody, human IgG1, kappa, V domains shown)
VH: B1 VH with T54S, T55N, G56A
VL: B1 VL with S10F, F73L, I83F
notes: as for B1

Kd: 3.4 nM
koff: 0.00064 s⁻¹
kon: 190000 M⁻¹ s⁻¹
B21: Y12XX-hz25 (antibody, human IgG1, kappa, V domains shown)
VH: B1 VH with A40R, M48I, T54S, T55N
VL: B1 VL with S10F, F73L, I83F
notes: as for B1

Kd: 3.5 nM
koff: 0.00084 s⁻¹
kon: 240000 M⁻¹ s⁻¹
B23: Y12XX-hz39 (antibody, human IgG1, kappa, V domains shown)
VH: B1 VH with A40R, M48I, T54S, T55N
VL: B3 VL
notes: as for B1

Kd: 3.8 nM
koff: 0.00094 s⁻¹
kon: 250000 M⁻¹ s⁻¹
B25: Y12XX-hz41 (antibody, human IgG1, kappa, V domains shown)
VH: B1 VH with T54S, T55N, G56A
VL: B3 VL
notes: as for B1

Kd: 0.007 nM
koff: 2.9e-07 s⁻¹
kon: 41000 M⁻¹ s⁻¹
B27: Y12XX-hz31 (antibody, human IgG1, kappa, V domains shown)
VH: B1 VH with A40R, M48I, Q50F, R57Y, Q59E, E62Q, T66D, S84N, Q102P
VL: B3 VL
notes: as for B1

Kd: 0.018 nM
koff: 7.3e-07 s⁻¹
kon: 41000 M⁻¹ s⁻¹
B29: Y12XX-hz30 (antibody, human IgG1, kappa, V domains shown)
VH: B1 VH with A40R, Q50F, R57Y, Q59E, E62Q, T66D, Q102P
VL: B3 VL
notes: as for B1

Kd: 8 nM
koff: 0.0028 s⁻¹
kon: 350000 M⁻¹ s⁻¹
B32: Y1262 (antibody, human IgG1, kappa)
heavy: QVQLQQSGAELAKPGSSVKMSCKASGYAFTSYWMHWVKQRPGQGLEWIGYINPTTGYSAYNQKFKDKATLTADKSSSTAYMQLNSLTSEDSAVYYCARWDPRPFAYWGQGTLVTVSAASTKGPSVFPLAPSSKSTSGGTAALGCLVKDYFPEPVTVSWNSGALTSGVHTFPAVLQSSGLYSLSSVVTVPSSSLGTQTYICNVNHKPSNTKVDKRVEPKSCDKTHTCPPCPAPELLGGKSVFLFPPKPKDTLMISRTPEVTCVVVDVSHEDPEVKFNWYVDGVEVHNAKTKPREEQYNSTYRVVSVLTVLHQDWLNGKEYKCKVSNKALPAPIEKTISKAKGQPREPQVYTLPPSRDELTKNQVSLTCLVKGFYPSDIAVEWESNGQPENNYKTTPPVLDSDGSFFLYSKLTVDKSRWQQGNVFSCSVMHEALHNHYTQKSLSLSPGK
light: B31 light with S67Y
notes: Chimeric, mouse variable and human constant regions; supernatant sample; also called chimeric Y1262; Chim
